The values that follow come from publication PMC10090020.

The target in the experiment is mCherry-CARACB(G15V) (barley (Hordeum vulgare)). The experiment in a line: FRET or BRET; FLIM-FRET in barley epidermal cells transiently co-expressing meGFP-RIC157 (donor) and mCherry-RACB forms (acceptor) after particle bombardment; meGFP lifetime measured at the equatorial plane; at least 10 cells per interaction in two replicates. A general note: Bioluminescence resonance energy transfer reports proximity on the nanometre scale.

In turn, meGFP-RIC157 (natural protein) gave a meGFP fluorescence lifetime of 2.2 ns.
